Experimental data published in patent US20120230981A1 (RESEARCH CORPORATION TECHNOLOGIES, published 2012).

Experiments:
[1] = molecular target: T1, soluble, recombinant hFcRn (human, UniProt P55899 24-297; P61769 21-119, limits assumed, biotinylated in the yeast flow cytometry assays (biotin-soluble FcRn); site not stated); test: competition, flow cytometry: IgG1 inhibits binding of soluble FcRn to yeast-displayed m01s at pH 6.0
T1 construct: also called rFcRn; soluble FcRn

[2] = molecular target: T1, soluble, recombinant hFcRn; test: Biacore (SPR), HiswtCH2 at 75-1200 nM
Protocol: For reference, the WT CH2 sequence (without the HIS tag) is shown in SEQ ID NO: 1. “HiswtCH2” of FIG. 1 is the WT CH2 sequence with a His tag, e.g., a group of histidine residues in a row, e.g., 6 histidine residues. […] HiswtCH2 was tested at 75, 150, 300, 600, 1200 nM. The A curves (1A, 2A, 3A, 4A, 5A, and 6A) are binding curves; the B curves (1B, 2B, 3B, 4B, 5B, and 6B) are fitted curves.

Row | IC50 [1] | Kd [2] | koff [2] | kon [2] | Molecule
1 | 629 nM |  |  |  | IgG1 (antibody)
2 |  | 90.8 nM | 0.00184 s⁻¹ | 20300 M⁻¹ s⁻¹ | HiswtCH2 (wild type CH2 domain of human IgG1 with a His tag) (other, also called wild type (WT) CH2; not shown: His tag, 'e.g., 6 histidine residues') APELLGGPSVFLFPPKPKDTLMISRTPEVTCVVVDVSHEDPEVKFNWYVDGVEVHNAKTKPREEQYNSTYRVVSVLTVLHQDWLNGKEYKCKVSNKALPAPIEKTISKAKGQ
